Assay results from a protein production outcome set (Wang et al. 2014).

Assay: label from the status in PepcDB records

MTNQEQSGDGGRLAPRPVERPPVDPAAQRTFGRPAGVEGSFLGAGQYQDQGEYAPKDQPPDPVLAEAFGRPRGTSETLQRHPTDAGALEAERLGDEDVTDDPWRDPSAPVALGTPAQPPPPPVYVNAPTGKLGLREVLFGGRVSWIALLTLALVAVLIAFVGGWVGQKTAGTVQAFTTSKVTLETGDHPDPDAGRFEQVAAAVADSVVTIEAKSKTEGSQGSGVVVDGKGYIVTNNHVISEAATKPADFQITVVFNDGKEVPANLVGRDPKTDLAVLKVDNVDNLTVAKLGDSEKIRVGEEVIAAGAPLGLRSTVTHGIVSALHRPVPLSGDGSDTDTVIDGVQTDASINHGNSGGPLINMNAEVIGINTAGKSLSDSASGLGFAIPVNEVKEVVETLVKDGKVAHPTLLVNAVTVSNSVASGAQIKNVVENGPAGKAGMLENDVVVKVGDRKVADADEFVVAVRQLKIGQEAPIEVVRDGRPLTLMVTPIGDDQKAQ
protein production: failed

MDFNPIDLILHLDTYLAMLVSNYGVWIYAILFLVIFCETGLVVTPFLPGDSLLFIAGAICATGGMDPWLLGGLLMVAAITGDSTNYVIGRTLGKRLFSNPDSKVFRRDYLDRTHEFYERHGGKTVTLARFLPIVRTFAPFVAGMAKMHYPRFVMFSVVGTVAWVGGLVTLGYFFGNVPFIKKNLSLLVIGIILLSLLPMILGFIRHRLQASAAKQAKAQSD
protein production: failed

MNKLSIIITYFNNEDYISECIHSLKSQRNQDFDIIVVDDGSTDRSTEILQEALKSYDKDVHFIQLQENTGHAHARNVALEQAHGQYVLFLDADDQLASYAVDYYLQHVNGLDTLIAPIHKFRSQRPQYVDKDKVRLQYASHQKSPNAILRKESACNILFKNAIIKAHQIQFNESLDIYADTSFVLEYLKYAERFVRITNFPFYYRGEVYDPFYGNTLSDQDFTNKFEDHVNSFFDAMQRTNDKRIKNFLIQRMKNEIKSGFDPALRDIKSRYVSLEDALIKIVKALKWNILKDGKVLYNLEILFLSMDDVENAKYVNDLRNKTRLVKNIVLNSKMKERSKYQLSDNEDLVDPNTIVFEAFGGKNYSDSPKYIYEYMQKHYPHLNYIWVFSKPENNNIPGNATKVKKGSQAYYDAYAKAKYWVTNARLPLYLNKKENQMYIQTWHGTPLKRLANDMKVVRMPGTTTANYKKNFYAEASRWDRLVSPNRYSSDIFKSAFWMDEDRIWEIGYPRNDVLVNRQNDTEYIEQIKRDLNLPADKKVIMYAPTWRDDEFVKKGQYLFDLKINLANLQKEIGDEYVILLRMHYLIANALDLHGYDDFAIDVSNYNDISELYLISDALVTDYSSVMFDFGILKRPQFFFAYDIEKYDKGLRGFYMDYMNDLPGEIITDEFKLAEELKQIDQHKVKYQDKIESFYNDFCSIENGKASQYIGDYIYKDIEKKS
protein production: failed

DARVQVMGIDAGGTMTDTFFVKENGSFVVGKAQSNPEDESLAIYNSSQDALSHWKSDVSKVYPELVTCVYSGTAMLNRVVQRRGMEVGLICNKGFEQMHSMGRALQSYLGYALEERLHINTHKYDDPLIPLKRIRGVTERTDVKGQVVIPVRQEEVKVAVKELLEAGAKAIVICLLQSHKNAESERIVRDIALKEIEKLGKN
protein production: failed

MAELENPSVMSKLIAFLSSLLERVAESNDLTRRVATQSQRVSVFHGLSRPTITIQSYLERIFKYANCSPSCFVVAYVYLDRFTHRQPSLPINSFNVHRLLITSVMVAAKFLDDLYYNNAYYAKVGGISTKEMNFLELDFLFGLGFELNVTPNTFNAYFSYLQKEMTLLQPLSLVVVPSSRSLITFNDDEASHQKQQQQQLAV
protein production: failed

MAKTPAAAPTATDPVAIAGPAPETIAVHGHRIACDGVGGALGHPRVWLEMGAAGFVDCPYCDRRFVAATDAGHDEHLAPGVYVDAAGHLEHHHHHH
protein production: failed

MCWPAPPRPSRRSSNGSPLLWQPGGYDRPPPPCRSLPHVCQNFVVRGCLMTISGGTFDPSICEMEPIATPGAIQPHGALMTARADSGRVAHASVNLGEILGLPAASVLGAPIGEVIGRVNEILLREARRSGSETPETIGSFRRSDGQLLHLHAFQSGDYMCLDIEPVRDEDGRLPPGARQSVIETFSSAMTQVELCELAVHGLQLVLGYDRVMAYRFGADGHGEVIAERRRQDLEPYLGLHYPASDIPQIARALYLRQRVGAIADACYRPVPLLGHPELDDGKPLDLTHSSLRSVSPVHLDYMQNMNTAASLTIGLADGDRLWGMLVCHNTTPRIAGPEWRAAAGMIGQVVSLLLSRLGEVENAAETLARQSTLSTLVERLSTGDTLAAAFVAADQLILDLVGASAAVVRLAGQELHFGRTPPVDAMQKVLDSLGRPSPLEVLSLDDVTLRHPELPELLAAGSGILLLPLTSGDGDLIAWFRPEHVQTITWGGNPAEHGTWNPATQRMRPRASFDAWKETVTGRSLPWTSAERNCARELGEAIAAEMAQRTRAELARLRHYDPLTGLANRSYLQERLAQDGQSAAALLFIDLDRFKAVNDSMGHGVGDGLLIEVARSLVATVRPHDLVVRLGGDEFVVLCHRLDAAGIVSLAERLRQVLEQPFEVAGRKCHISASIGIAMADSIGDLDLVRAADIAMYAAKKNGGNRGELFRPSLYEETTQLVELDNDMRGAIESEQFHLVYQPIFALNPETERLVGFEALLRWDHPLHGALQPGIFIPLAERLGHIHAMGNWVLRRAILQLQAFRSAGPELDLKMNVNVSPLQLARPDFLARLADLLAQVPDLPRHALCLEITETSLSDEAVSEALISIRALGVRIAIDDFGTGFSSLACLRRLPVDVAKLDRAFLGGGHTAAQDHRFFAAVTGLVHAADLKVVQEGIETLDQLALVRAAGADFAQGFHLAAPLSIAAALGLIAASRKE
protein production: failed

MADFVAASGQLGFWTYCLLMIGSVFSGMTLIGVAGLAFTTGYANVWERIIGPPFAIAFGTILIGYKLFNLKDKNGILTIQDYLAFRYDDPKIIRILAGLISAVTCFVYLIGQYTAIGVVSYVVLGIPYWLGAVIAAVIVVAYVMSGGMFSTAWTTFLQSILMLLGIYVTVPFIIAWVGGFEAMNQALAAMPEIQNATRGVAENFMFAKYLSKPFAPASVPLAGWVYNLTLFGITVPLGLMVAPHIVNNMLTFRKIEYTRWGPLVMYVIGFSAIFLTALAGMAARVAWAKGMIDIPSLTLGSIEVKWSDMAYPTIASKALPYWLFVLLLPTILAGVMSTTDRLILTAANNISYDVLRNALGKNLSENALKKVNMLVVPLIGFGSLLIALFPQQLLAWFIWAALSLMTNCFFFPIMLGLYWDRMTKNAARLSMIAGFVVTLATFAIYGKTIYIAGIPAYSVLPGFVASFVLAVGVSLLEKG
protein production: failed

MIIPTVPTTDELLDKGFRRARKAASLKRSSKIPGQKKAKVIESTRVQTACQVIRDRLKMIIQRIPDIESLPEFYQDYIDVTVGVDELKKSLGALNWAVGILNQLESDYMARIKRSKPSDASHLRREAFGRISSVIKRIEGDLDFLDFAKNKLRNMPTVDLDAFTVVIAGFPNVGKSTLLRTLTGAEPEVADYPFTTKGIQIGHLERKWKRIQVIDTPGLLDRPVEDMNNIELQAMVALENIADVIMFIFDASETCGYTLESQYSLYLGIRSVFDIPVVTVFNKMDLAENVKYLEEYINMVEDPLKVSAFEGRGVSKIIKKLEGLYEKETREAHDNV
protein production: failed

MKFFSVFILAILSILCMPLIASTTNYDETLTKIETLQHSDLPAAINLIKTIESEFGAMSRLQQGRVLLFKGAASIYSGQYQTAIELLGQAEALLKDSEMLFSAYSYEATAYIALRHFNDAFIAMGKSLGLIERIEDTNLKRASYLRLASLYSAMGISEEVATYATKALALASESDVKDICGARLYLSVHQLEIASYAQAFDEFKSTRSYCESSGYPLIANIALKGMGESSLRLNEPQLAISYLLDSLKGYESFNFELEINSVHELLSEAYLLLQDSTKAELHAQYVMNLVDDSSNTELKHGASGVLAKIYAQKQQFEQAYEYSRKEQHYNQLIFDESRMKTLAYQAAKFNADEQAREINLLNKERELYIAQQMVKEREYTNMLMFITILVGGLFFLAILLVVGNLQKRRFMRMAKMDALTGVLNRGAGQDLGENMFVQAAARGGDYCVILFDLDHFKRINDSYGHGTGDWALKKVVEVLKPHIRNGDVFARIGGEEFALFLPYANEAKGLDVAEQCRSRIEAIDTHLSGHKFTITASFGVSGMTKDDLSLDPLLHRADMALYAAKSNGRNCVSCYQDALMCDKRVTNLTSELARQP
protein production: failed

MARMAVTLTHVMAMHAQILKFIVTALFVVPLFLAPAEAQTSETDLLAQLQTAPESEANRLERELALIWDQSGSAAMDLLLKRGREALEDEDNARAVEHLSALTDHAPEFAEGWHARATALYRAGLYGPALDALHQALLLNPNNFNAIFGLGVMMREFGDLDRAARAFDRVLELHPHHKRAKAAKEQMAVQGLGQTL
protein production: failed

SSPIRLSTSNLPMTLTTNTSSGAPNKAFNTSSVNSGNSFSRTTTSSTTTTTERIEIRAEGDGEVDTDSIRKRITERLRRSVSKTISNLAGTPVTNTEEGSRYSRSVSRSVYDDEKSSKRSYSTGEEDIDEEDELEEDQFRSFNVTRKSATPAEISCRQLKAPREFGGWLGAFLFLLLLPTAVYYLTWSCTARNACQFKHLNLGILLDVNYLTRQVFQPRVVGAFAAYQVVVFLLVALLPGRRVHLTRETYKFNCLAVSLTLLIASGVAEYLKYPVVTFVLRHYLRFCIFGLVGAFVAAAW
protein production: failed

MSVDAVEIETLRKTVEDYFCFCYGKALGKSTVVPVPYEKMLRDQSAVVVQGLPEGVAFKHPENYDLATLKWILENKAGISFIIKRPFLEPKKHVGG
protein production: not failed

MGAAGGGWRMSERHLRRSTHKVGDVTLGPVHRLSCHCGAVQIDLDLPHGLLDPRRCDCSMCRRRGAIVASVSLDGLHVLQGEDVLRLYQFNTQTAAHYFCGVCGIYTHHRRRSNPNEYGYNVGCLEGVNPYALNIAVPVEDGVNHPADRVTAAS
protein production: failed

MVSLIAKIHRRRAYLTVIAIMTFIVRLIPSRNFTLAGNDAYIHHDIVMRIAREGLGIIGHDIPSLMGLKAYAYPPLFHVMGYGLYLLFRSELVFFFISPLLGTATVLVIYKVARETFEREEVALLSAFLFSMVPSFVARTSVFIPESMGLLLTSGILYMLVKYLKTTPGYPDIDKFELKAFSNLFRGDLRYILGGLALFVIYLFTHRGWVFLLIALLLLAVTFLTPSFRKRPLEFGLIFLLIGAGIIEFITFAARFQSVPVTILGFPKWMGVLQLILGIYGASLLLRSKNPIHRFLIIWATAFMIIGTYSFRFRDPYAAIPLSLMGGYAFSEVKGRLYASKRFKSYSIMKRDVKPFLRTGIFALLVLMPLAQGAAIAYTGVTTPSPQQNAAFRWINDNTPQDAVFLSAIEDSYSLIGNTHRRDVLLWKTVYEGFMGSAPSLKENTMTRDEVSAIFQSSIPSETSYLLERNNISYIYISKSMHMKGIGLQLPVDPHFKTCFVSGDVSVYRYIKNPGIQSNYSSITVNGEDGKVVEFIEKFWNGYSQGTEPSHQGVSTL
protein production: failed

MWDETVAGPKPEHGLGRLRNKITTQPLDIKGVGEGSSSKTVAAVAGSPGTPTTPGSARKENVWRSVFHPGSNIATRGMGTNLFDKPSHPNSPTVYDWLYSDDTRSKHR
protein production: failed

MMGSVELNLRETELCLGLPGGDTVAPVTGNKRGFSETVDLKLNLNNEPANKEGSTTHDVVTFDSKEKSACPKDPAKPPAKAQVVGWPPVRSYRKNVMVSCQKSSGGPEAAAFVKVSMDGAPYLRKIDLRMYKSYDELSNALSNMFSSFTMGKHGGEEGMIDFMNERKLMDLVNSWDYVPSYEDKDGDWMLVGDVPWPMFVDTCKRLRLMKGSDAIGLAPRAMEKCKSRA
protein production: failed

MKYQNEGQHRSPWALIVFLALSMAVTSPATRAQSSDLPSIGGSGGLISGQMEADIGQQVMASIRRSAPQLQDPLVYDYLSAIIYRLVPSAPLDNRDLKLVLIDSPAINAFAVPGGVVGVNGGLFLNAATEQQFASVLAHELAHLSQRHFARRMQQQETSAPLTLAGMIAGIVLSAVTQSDIGIAAIAGTQAMAVQNMLAYSRSHEQEADRVGMDILASAGMDPRGMPEMFEIMMRQNRLQGNRLPEYLSTHPLTQNRVADTRNRAEQYPDTRVQDGQEYHLVRSRLQVHYSESPETAIETFEAYLAREDAQRNDAIRYGLAVAYQESRRYEKAEQLMRELLKANPGRITFQVSLAEVLLSQKRYADARALMQEALARNPGNYPITSTLAAIEIADGNGAAAADYLRELTRRLPSQEQLWLRLAEAEGMARNIVGVHRARAEYDVLMGDLKSAQRQLRQAQEKLPAGSAERQVVSERLGELTNRLQAREAG
protein production: failed
